# Molecular target: FPR-chloromethyl ketone-thrombin (active site-inhibited α-thrombin) (human), P00734
# Test: ELISA
binder,measurement,value
GDFEPIPEDAYDE (modifications not checked) [H6HV3_(54-66)G6 synthetic peptide],IC50,5 µM

# Source: PMC3830444
